Experimental data reported in article PMC9718841.

Experiments:
[1] = biological target: recombinant human CALM2 protein (human) (UniProt P0DP24); test: MST; CaCl2
[2] = biological target: recombinant human CALM2 protein (human) (UniProt P0DP24); test: MST; labelled CALM2 at 500 nM, peptide in 16-point serial dilution, 25 °C; in the absence (1 mM EDTA, Apo-CALM2) and presence of Ca2+

Chain of peptide TLIQ2 (O00206 whole entry, looked up, tested part not stated): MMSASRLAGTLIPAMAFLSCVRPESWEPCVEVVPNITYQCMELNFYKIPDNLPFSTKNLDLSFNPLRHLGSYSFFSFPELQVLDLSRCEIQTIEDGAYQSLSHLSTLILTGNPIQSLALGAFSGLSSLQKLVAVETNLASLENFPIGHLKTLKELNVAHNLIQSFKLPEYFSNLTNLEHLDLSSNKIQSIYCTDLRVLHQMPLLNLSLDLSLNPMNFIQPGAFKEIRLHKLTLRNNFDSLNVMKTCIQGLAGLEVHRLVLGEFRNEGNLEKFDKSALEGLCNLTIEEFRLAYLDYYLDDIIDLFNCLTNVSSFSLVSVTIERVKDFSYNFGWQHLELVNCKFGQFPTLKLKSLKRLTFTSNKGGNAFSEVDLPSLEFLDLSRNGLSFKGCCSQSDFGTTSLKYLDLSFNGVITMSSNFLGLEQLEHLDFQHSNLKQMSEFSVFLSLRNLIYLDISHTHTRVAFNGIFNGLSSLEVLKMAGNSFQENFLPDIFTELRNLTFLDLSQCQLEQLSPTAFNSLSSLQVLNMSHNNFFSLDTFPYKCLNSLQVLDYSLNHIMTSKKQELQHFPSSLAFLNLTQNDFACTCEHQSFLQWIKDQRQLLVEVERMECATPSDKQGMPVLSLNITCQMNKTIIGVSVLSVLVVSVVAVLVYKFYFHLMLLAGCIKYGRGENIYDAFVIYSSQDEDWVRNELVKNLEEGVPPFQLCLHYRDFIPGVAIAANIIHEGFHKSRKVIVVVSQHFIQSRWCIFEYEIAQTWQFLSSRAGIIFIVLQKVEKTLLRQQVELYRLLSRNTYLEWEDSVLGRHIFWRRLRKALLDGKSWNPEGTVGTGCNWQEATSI

## peptide TLIQ2 (from UniProt O00206)
[1]
  Kd: 9.03 µM

## peptide TLIQ2
[2]
  Kd: 6.69 µM
